Measured values reported in US20250170227A1.
Each block holds one substance with its values, some of them ahead of it.

Experiments:
C1s [1] = experiment: C1s activity inhibition
C1s [2] = experiment: C1s activity inhibition; 10x periodate
C1s [3] = experiment: C1s activity inhibition; 40x periodate
C1s [4] = experiment: C1s activity inhibition; 20x periodate

IC50 (C1s [1]): 1.49 nM
Substance: Cinryze

IC50 (C1s [2]): 1.45 nM
Substance: Cinryze-5k-10x

IC50 (C1s [3]): 2.7 nM
Substance: Cinryze-PEG5k-40x

IC50 (C1s [4]): 2.26 nM
Substance: Cinryze-5k-20x
